Data taken from article PMC10506259, “A glycosylated Phr1 protein is induced by calcium stress and its expression is positively controlled by the calcium/calcineurin signaling transcription factor Crz1 in Candida albicans”.

Experiments:
6xHis-Crz1 (CaCrz1) [1] = molecular target: T1, 6xHis-Crz1 (CaCrz1) (Candida albicans, UniProt Q5A4H5 1-731); assay: EMSA; 1 ug protein; DIG Gel Shift Kit (Roche), per manufacturer; buffer, salt, pH and temperature not stated; details: protein: recombinant; tags: His6; label: DIG at 3' end; blunt
T1 sequence: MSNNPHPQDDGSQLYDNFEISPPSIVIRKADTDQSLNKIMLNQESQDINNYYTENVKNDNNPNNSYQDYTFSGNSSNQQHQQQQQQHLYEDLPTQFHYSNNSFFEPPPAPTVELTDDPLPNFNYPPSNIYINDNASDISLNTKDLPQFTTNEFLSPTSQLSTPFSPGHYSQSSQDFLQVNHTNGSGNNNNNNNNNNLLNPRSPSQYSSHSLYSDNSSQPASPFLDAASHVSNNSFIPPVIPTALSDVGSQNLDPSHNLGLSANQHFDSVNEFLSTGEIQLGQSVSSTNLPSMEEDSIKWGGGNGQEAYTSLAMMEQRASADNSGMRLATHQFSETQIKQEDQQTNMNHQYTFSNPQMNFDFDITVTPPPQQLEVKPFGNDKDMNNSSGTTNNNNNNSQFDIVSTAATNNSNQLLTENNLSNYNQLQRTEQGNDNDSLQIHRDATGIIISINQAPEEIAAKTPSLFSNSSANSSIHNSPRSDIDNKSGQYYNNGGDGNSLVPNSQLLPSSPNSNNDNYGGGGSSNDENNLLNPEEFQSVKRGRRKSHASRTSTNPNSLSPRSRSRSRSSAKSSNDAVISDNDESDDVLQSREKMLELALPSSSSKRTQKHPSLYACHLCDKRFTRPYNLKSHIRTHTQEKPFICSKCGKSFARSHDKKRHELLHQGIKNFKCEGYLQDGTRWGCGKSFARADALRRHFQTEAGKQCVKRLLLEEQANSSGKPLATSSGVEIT

6xHis-Crz1 (CaCrz1) [2] = molecular target: T1, 6xHis-Crz1 (CaCrz1); assay: competition; unlabelled probe abolished binding to DIG-labelled N1; 1 ug protein; DIG Gel Shift Kit (Roche), per manufacturer; buffer, salt, pH and temperature not stated; details: protein: recombinant; tags: His6; blunt

B1: EMSA_PHR1_F/R (PHR1 promoter CDRE probe) (dsDNA)
DNA 1: CCTTTCTCATAGGAATTCATCGACGCCTCATTCATACTAATATAATAGGT
DNA 2: ACCTATTATATTAGTATGAATGAGGCGTCGATGAATTCCTATGAGAAAGG
- binding result (6xHis-Crz1 (CaCrz1) [1]): binds

B2: unlabelled EMSA_PHR1_F/R (specific competitor) (dsDNA)
DNA 1: B1 DNA 1
DNA 2: B1 DNA 2
- binding result (6xHis-Crz1 (CaCrz1) [2]): binds
